Measurements from patent US20230061604A1 (HIFIBIO HK, published 2023).

Tests used:
[1] = molecular target: T1, human OX40 protein expressed on the surface of cells (human, UniProt P43489 29-277); assay: cell-based or functional assay
T1 sequence (looked up): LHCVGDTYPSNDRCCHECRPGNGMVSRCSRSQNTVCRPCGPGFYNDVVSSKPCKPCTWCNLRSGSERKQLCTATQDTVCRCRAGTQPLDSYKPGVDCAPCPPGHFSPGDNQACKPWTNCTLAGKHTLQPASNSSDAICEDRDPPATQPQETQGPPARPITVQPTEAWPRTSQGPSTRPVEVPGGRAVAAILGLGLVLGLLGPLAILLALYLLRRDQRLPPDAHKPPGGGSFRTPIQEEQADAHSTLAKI

[2] = molecular target: T2, biotinylated OX40 recombinant protein (UniProt P43489 29-216, limits assumed, biotinylated (site not stated)); assay: ELISA: OX40L coated, biotinylated OX40 titrated (x axis is its concentration in nM), OD 450nm
T2 construct: also called Biotin-OX40
T2 sequence (looked up): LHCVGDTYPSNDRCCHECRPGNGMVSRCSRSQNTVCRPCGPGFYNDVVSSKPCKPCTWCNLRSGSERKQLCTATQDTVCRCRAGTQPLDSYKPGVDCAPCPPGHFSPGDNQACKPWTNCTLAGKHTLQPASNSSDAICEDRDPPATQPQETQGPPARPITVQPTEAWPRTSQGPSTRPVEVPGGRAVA

B1: OX40L (trimeric OX40L recombinant protein) (ligand, UniProt P23510 51-183, looked up)
chain: QVSHRYPRIQSIKVQFTEYKKEKGFILTSQKEDEIMKVQNNSVIINCDGFYLISLKGYFSQEVNISLHYQKDEEPLFQLKKVRSVNSLMVASLTYKDKVYLNVTTDNTSLDDFHVNGGELILIHQNPGEFCVL
notes: Bought recombinant protein; also called OX40 ligand
- EC50 (MFI of GFP), NF-kb GFP Jurkat reporter cells, without cross-linking [1]: 45 nM
- EC50 (read off the curve) [2]: ~0.5 nM

B2: anti-OX40 antibody HFB10-1E1hG1 (antibody, human IgG1, kappa, V domains shown)
VH: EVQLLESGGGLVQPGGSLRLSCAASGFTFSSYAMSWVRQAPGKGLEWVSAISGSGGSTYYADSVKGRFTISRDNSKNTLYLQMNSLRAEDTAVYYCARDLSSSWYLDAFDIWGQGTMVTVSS
VL: DIQMTQSPSSVSASVGDRVTITCRASQGISSWLAWYQQKPGKAPKLLIYAASSLQSGVPSRFSGSGSGTDFTLTISSLQPEDFATYYCQQANSFPLTFGGGTKLEIKR
- EC50 (MFI of GFP), NF-kb GFP Jurkat reporter cells, cross-linked with anti-human IgG [1]: 2.9 nM
- EC50 of IL-2 secretion, primary CD4+ T cells pre-activated with anti-CD3 and anti-CD28, cross-linked [1]: 0.2 nM
